For the experiment, the target named is Fzd2 pTyr552 peptide (phosphorylated 18-mer). Description: SPR. A general note: Surface plasmon resonance follows binding to a sensor surface in real time, without labels.

Kd data for one substance are collected here from PMC4243058.

pKd: −log10 of the molar value.

The substance “GST-FynSH2 (SH2 domain of Fyn) (from UniProt P06241 149-246) (domain or fragment)” had a pKd of 8.68.

A word on the pKd: it is the negative decadic logarithm of the Kd, by convention in mol/L. The low end stands for a high Kd, the high end for a low Kd.
